The values that follow are results of earlier work, collected in article PMC5871566.

Series [1] has as its target C4b (Homo sapiens) (UniProt P0C0L4).
For series [2] the target is unchanged. This is another data set of the same source.

Read-outs that look alike come from different tables or passages of the source.

UniProt P0C0L4, sequence (P0C0L4 20-1744, chain 1 of 2): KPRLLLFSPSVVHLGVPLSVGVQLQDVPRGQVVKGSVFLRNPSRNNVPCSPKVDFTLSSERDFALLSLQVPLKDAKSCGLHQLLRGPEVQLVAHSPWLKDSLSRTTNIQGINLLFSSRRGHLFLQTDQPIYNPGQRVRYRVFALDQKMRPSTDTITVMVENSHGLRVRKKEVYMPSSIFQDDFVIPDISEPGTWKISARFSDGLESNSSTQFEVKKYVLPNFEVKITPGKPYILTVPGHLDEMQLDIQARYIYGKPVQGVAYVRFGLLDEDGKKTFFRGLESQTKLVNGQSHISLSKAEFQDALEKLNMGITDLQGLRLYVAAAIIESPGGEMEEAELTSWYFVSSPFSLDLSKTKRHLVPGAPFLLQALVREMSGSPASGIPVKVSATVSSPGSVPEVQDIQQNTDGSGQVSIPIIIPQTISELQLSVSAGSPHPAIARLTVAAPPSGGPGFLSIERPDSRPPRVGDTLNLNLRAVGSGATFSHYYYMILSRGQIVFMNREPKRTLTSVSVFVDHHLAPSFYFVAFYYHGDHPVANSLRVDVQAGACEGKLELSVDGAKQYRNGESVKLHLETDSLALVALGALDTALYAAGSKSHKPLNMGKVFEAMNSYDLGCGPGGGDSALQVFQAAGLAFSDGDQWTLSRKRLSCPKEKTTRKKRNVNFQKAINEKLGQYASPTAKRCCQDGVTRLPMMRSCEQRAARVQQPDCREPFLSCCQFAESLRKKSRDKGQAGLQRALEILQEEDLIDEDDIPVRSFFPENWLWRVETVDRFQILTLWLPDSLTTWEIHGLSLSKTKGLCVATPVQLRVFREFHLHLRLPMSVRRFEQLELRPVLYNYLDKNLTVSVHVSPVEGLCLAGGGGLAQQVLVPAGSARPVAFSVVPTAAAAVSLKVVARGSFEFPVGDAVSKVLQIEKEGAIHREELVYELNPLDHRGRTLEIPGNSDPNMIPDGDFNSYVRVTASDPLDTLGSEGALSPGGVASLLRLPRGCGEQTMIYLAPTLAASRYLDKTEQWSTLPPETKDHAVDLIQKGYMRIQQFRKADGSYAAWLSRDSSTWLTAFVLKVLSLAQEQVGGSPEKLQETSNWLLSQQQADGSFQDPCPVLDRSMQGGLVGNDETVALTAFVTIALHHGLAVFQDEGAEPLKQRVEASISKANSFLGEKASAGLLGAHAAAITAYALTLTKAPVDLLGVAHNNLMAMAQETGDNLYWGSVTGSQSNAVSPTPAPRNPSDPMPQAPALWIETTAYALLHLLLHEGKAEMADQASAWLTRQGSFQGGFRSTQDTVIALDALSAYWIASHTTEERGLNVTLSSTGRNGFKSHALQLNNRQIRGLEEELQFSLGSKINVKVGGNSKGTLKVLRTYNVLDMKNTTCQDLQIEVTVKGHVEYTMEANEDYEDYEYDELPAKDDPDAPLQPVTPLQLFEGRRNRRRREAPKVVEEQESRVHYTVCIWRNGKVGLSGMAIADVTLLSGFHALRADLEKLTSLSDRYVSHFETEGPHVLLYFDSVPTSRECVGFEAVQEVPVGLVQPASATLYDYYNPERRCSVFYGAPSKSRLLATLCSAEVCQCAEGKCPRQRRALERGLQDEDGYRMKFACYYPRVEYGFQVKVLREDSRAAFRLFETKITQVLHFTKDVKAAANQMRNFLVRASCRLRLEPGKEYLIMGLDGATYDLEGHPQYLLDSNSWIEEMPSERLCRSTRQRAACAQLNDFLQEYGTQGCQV
UniProt P0C0L4, sequence (P0C0L5 20-1744, chain 2 of 2, further chain): as the sequence (P0C0L4 20-1744, chain 1 of 2) above, with A888T, D1054G, P1101L, C1102S, L1105I, D1106H, N1157S, V1188A, L1191R, S1267A counted along it

For the substance Eap34 domains 3-4 (from UniProt Q99QS1), the dissociation constant (Kd) with C4b (Homo sapiens) [1] was 0.525 µM.
“Eap individual domains (domain 3 or 4) domain 3 or domain 4 (from UniProt Q2FWW1)”: the equilibrium dissociation constant (Kd) with C4b (Homo sapiens) [2] was 40 µM.

The Kd is the constant that tells how readily two partners part at equilibrium.
